Reference: patent publication US20140093496A1 (Chugai, published 2014)
Where a chain is given by its changes, count along the chain named. Numbers in names are those of the source.

How the values were obtained:
[1] = molecular target: T1, FcγRIIa type R extracellular domain with C-terminal His tag (human, UniProt P12318 34-217); assay: SPR (Biacore), antibody captured, FcγR analyte
T1 chain: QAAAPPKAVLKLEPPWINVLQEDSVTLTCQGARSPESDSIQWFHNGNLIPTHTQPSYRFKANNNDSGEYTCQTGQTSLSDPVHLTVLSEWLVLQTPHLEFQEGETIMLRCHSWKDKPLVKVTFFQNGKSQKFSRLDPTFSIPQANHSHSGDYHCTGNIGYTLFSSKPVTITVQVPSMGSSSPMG
Source text: (§1) Furthermore, KD(IIaR)/KD(IIb) and KD(IIaH)/KD(IIb) in the table respectively show the value obtained by dividing the KD value of each variant for FcγRIIaR by the KD value of each variant for FcγRIIb, and the value obtained by dividing the KD value of each variant for FcγRIIaH by the KD value of each variant for FcγRIIb. KD(IIb) of the parent polypeptide/KD(IIb) of the altered polypeptide refers to a value obtained by dividing the KD value of the parent polypeptide for FcγRIIb by the KD value of each variant for FcγRIIb.
(§2) Kinetic analyses for calculating the KD values of each altered antibody for FcγR were performed according to the following method. First, antibodies of interest were captured onto the above-mentioned sensor chips, and an Fcγ receptor diluted with the running buffer was allowed to interact. The Biacore Evaluation Software was used to globally fit the measured results to the obtained sensorgram using the 1:1 Langmuir binding model, and the association rate constant ka (L/mol/s) and the dissociation rate constant kd (1/s) were calculated; and from those values the dissociation constants KD (mol/L) were calculated.

[2] = molecular target: T2, FcγRIIIa type V extracellular domain with C-terminal His tag (human, UniProt P08637 17-208); assay: SPR (Biacore), antibody captured, FcγR analyte
T2 construct: extracellular domain; also called FcγRIIIaV; FcgRIIIaV; not shown: His tag at the C terminus
Source text: as §1, §2
T2 sequence (P08637 17-208 F176V): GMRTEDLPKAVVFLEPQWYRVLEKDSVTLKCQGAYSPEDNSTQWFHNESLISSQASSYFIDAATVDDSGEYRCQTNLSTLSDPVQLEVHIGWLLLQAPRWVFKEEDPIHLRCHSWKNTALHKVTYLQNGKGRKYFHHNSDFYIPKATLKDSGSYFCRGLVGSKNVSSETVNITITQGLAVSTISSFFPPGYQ

[3] = molecular target: T3, FcγRIIa type R extracellular domain with C-terminal His tag (human, UniProt P12318 34-217); assay: SPR (Biacore)
T3 construct: extracellular domain; also called FcgRIIaR; FcγRIIaR
T3 sequence (looked up): T1 chain
Source text: (§3) IL6R-L was utilized as the common antibody L chain for all of the antibodies, the antibodies were expressed and purified according to the method of Reference Example 1, and binding to each of the FcγRs (FcγRIa, FcγRIIa H type, FcγRIIa R type, FcγRIIb, and FcγRIIIa V type) was comprehensively evaluated by the method of Reference Example 2.
as §1, with “respectively represent” for “respectively show”, “to the” for “to a”

[4] = molecular target: T4, FcγRIIIa type V extracellular domain with C-terminal His tag (human, UniProt P08637 17-208); assay: SPR (Biacore)
T4 construct: extracellular domain; also called FcgRIIIaV; FcγRIIIaV
Source text: as §3
as §1, with “respectively represent” for “respectively show”, “to the” for “to a”
T4 sequence (P08637 17-208 F176V): as above

[5] = molecular target: T5, FcγRIIb extracellular domain with C-terminal His tag (human, UniProt P31994 43-217); assay: SPR (Biacore)
T5 construct: extracellular domain; also called FcgRIIb
T5 sequence (looked up): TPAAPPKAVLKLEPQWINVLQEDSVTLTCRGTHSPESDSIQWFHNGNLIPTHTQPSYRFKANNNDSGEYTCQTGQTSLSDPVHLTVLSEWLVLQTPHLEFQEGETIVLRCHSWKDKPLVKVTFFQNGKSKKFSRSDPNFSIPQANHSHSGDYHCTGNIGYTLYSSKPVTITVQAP
Source text: as §3
as §1, with “respectively represent” for “respectively show”, “to the” for “to a”

[6] = molecular target: T6, FcγRIa extracellular domain with C-terminal His tag (human, UniProt P12314 16-292); assay: SPR (Biacore)
T6 construct: also called FcgRIa
Source text: as §3
as §1, with “respectively represent” for “respectively show”, “to the” for “to a”

[7] = molecular target: T7, FcγRIIa type H extracellular domain with C-terminal His tag (human, UniProt P12318 34-217); assay: SPR (Biacore)
T7 construct: extracellular domain; also called FcgRIIaH; FcγRIIaH
T7 sequence (looked up): T1 chain with R134H
Source text: as §3
as §1, with “respectively represent” for “respectively show”, “to the” for “to a”

T6 sequence (P12314 16-292): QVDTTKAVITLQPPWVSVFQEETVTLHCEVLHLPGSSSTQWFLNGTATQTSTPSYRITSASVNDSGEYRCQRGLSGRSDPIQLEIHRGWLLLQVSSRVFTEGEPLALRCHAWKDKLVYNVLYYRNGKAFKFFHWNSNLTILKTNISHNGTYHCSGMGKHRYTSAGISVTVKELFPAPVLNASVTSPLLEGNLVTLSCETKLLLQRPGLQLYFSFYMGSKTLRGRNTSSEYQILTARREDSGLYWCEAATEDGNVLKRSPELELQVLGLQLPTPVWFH

B1: IL6R-PD043/IL6R-L (antibody, human IgG1, kappa)
heavy: QVQLQESGPGLVKPSETLSLTCAVSGHSISHDHAWSWVRQPPGEGLEWIGFISYSGITNYNPSLQGRVTISRDNSKNTLYLQMNSLRAEDTAVYYCARSLARTTAMDYWGEGTLVTVSSASTKGPSVFPLAPSSKSTSGGTAALGCLVKDYFPEPVTVSWNSGALTSGVHTFPAVLQSSGLYSLSSVVTVPSSSLGTQTYICNVNHKPSNTKVDKKVEPKSCDKTHTCPPCPAPEYLGGDSVFLFPPKPKDTLYISRTPEVTCVVVDVSHEDPEVKFNWYVDGVEVHNAKTKPREEQYNSTYRVVSVLTVLHQDWLNGKEYKCKVSNKALPAPIEKTISKAKGQPREPQVYTLPPSRDELTKNQVSLTCLVKGFYPSDIAVEWESNGQPENNYKTTPPVLDSDGSFFLYSKLTVDKSRWQQGNVFSCSVMHEALHYHYTQKSLSLSP
light: not shown
notes: IL6R-F11 with P238D/L234Y; copies: 2 + 2
Kd [1]: 26 µM
Kd [2]: 45 µM

B2: IL6R-PD081/IL6R-L (antibody, human IgG1, kappa)
heavy: B1 heavy with Y236L, G239E
light: not shown
notes: IL6R-F11 with P238D/G237E; copies: 2 + 2
Kd [1]: 38 µM
Kd [2]: 41 µM

B3: IL6R-PD082/IL6R-L (antibody, human IgG1, kappa)
heavy: B1 heavy with Y236L, G239F
light: not shown
notes: IL6R-F11 with P238D/G237F; copies: 2 + 2
Kd [1]: 14 µM
Kd [2]: 43 µM

B4: IL6R-PD086/IL6R-L (antibody, human IgG1, kappa)
heavy: B1 heavy with Y236L, G239L
light: not shown
notes: IL6R-F11 with P238D/G237L; copies: 2 + 2
Kd [2]: 41 µM

B5: IL6R-PD094/IL6R-L (antibody, human IgG1, kappa)
heavy: B1 heavy with Y236L, G239W
light: not shown
notes: IL6R-F11 with P238D/G237W; copies: 2 + 2
Kd [1]: 7.2 µM
Kd [2]: 38 µM

B6: IL6R-PD095/IL6R-L (antibody, human IgG1, kappa)
heavy: B1 heavy with Y236L, G239Y
light: not shown
notes: IL6R-F11 with P238D/G237Y; copies: 2 + 2
Kd [1]: 7.9 µM
Kd [2]: 42 µM

B7: IL6R-PD097/IL6R-L (antibody, human IgG1, kappa)
heavy: B1 heavy with Y236L, S241D
light: not shown
notes: IL6R-F11 with P238D/S239D; copies: 2 + 2
Kd [1]: 3.5 µM
Kd [2]: 17 µM

B8: IL6R-2B253/IL6R-L (antibody, human IgG1, kappa)
heavy: B1 heavy with E235D, Y236L, Y254M, V325M, Y436N, K441E
light: not shown
notes: E233D/P238D/V323M (EU) in IL6R-B3; copies: 2 + 2
Kd [3]: 5 µM
Kd [4]: 50 µM

B9: IL6R-2B261/IL6R-L (antibody, human IgG1, kappa)
heavy: B1 heavy with E235D, Y236L, Y254M, Y298D, Y436N, K441E
light: not shown
notes: E233D/P238D/Y296D (EU) in IL6R-B3; copies: 2 + 2
Kd [5]: 1 µM
Kd [6]: 0.009 µM

B10: IL6R-BP084/IL6R-L (antibody, human IgG1, kappa)
heavy: B1 heavy with Y236L, Y254M, V325M, A332K, Y436N, K441E
light: not shown
notes: P238D/V323M/A330K (EU) in IL6R-B3; copies: 2 + 2
Kd [5]: 0.5 µM
Kd [6]: 0.007 µM

B11: IL6R-BP085/IL6R-L (antibody, human IgG1, kappa)
heavy: B1 heavy with Y236L, G239D, Y254M, A332K, Y436N, K441E
light: not shown
notes: G237D/P238D/A330K (EU) in IL6R-B3; copies: 2 + 2
Kd [3]: 4.2 µM
Kd [4]: 68 µM

B12: IL6R-BP089/IL6R-L (antibody, human IgG1, kappa)
heavy: B1 heavy with Y254M, K328A, A332K, Y436N, K441E
light: not shown
notes: L234Y/P238D/K326A/A330K (EU) in IL6R-B3; copies: 2 + 2
Kd [7]: 20 µM

B13: IL6R-BP129/IL6R-L (antibody, human IgG1, kappa)
heavy: B1 heavy with E235D, Y236L, Y254M, Y298D, A332K, Y436N, K441E
light: not shown
notes: E233D/P238D/Y296D/A330K (EU) in IL6R-B3; copies: 2 + 2
Kd [7]: 40 µM

B14: IL6R-BP130/IL6R-L (antibody, human IgG1, kappa)
heavy: B1 heavy with E235D, Y236L, Y254M, V325M, A332K, Y436N, K441E
light: not shown
notes: E233D/P238D/V323M/A330K (EU) in IL6R-B3; copies: 2 + 2
Kd [5]: 0.3 µM

B15: IL6R-BP132/IL6R-L (antibody, human IgG1, kappa)
heavy: B1 heavy with E235D, Y236L, Y254M, K328A, A332K, Y436N, K441E
light: not shown
notes: E233D/P238D/K326A/A330K (EU) in IL6R-B3; copies: 2 + 2
Kd [7]: 30 µM
Kd [3]: 8 µM

B16: IL6R-BP148/IL6R-L (antibody, human IgG1, kappa)
heavy: B1 heavy with E235D, G239D, Y254M, K328A, A332K, Y436N, K441E
light: not shown
notes: E233D/L234Y/G237D/P238D/K326A/A330K (EU) in IL6R-B3; copies: 2 + 2
Kd [7]: 7 µM
Kd [4]: 30 µM

B17: IL6R-BP151/IL6R-L (antibody, human IgG1, kappa)
heavy: B1 heavy with E235D, G239D, Y254M, K328A, A332R, Y436N, K441E
light: not shown
notes: E233D/L234Y/G237D/P238D/K326A/A330R (EU) in IL6R-B3; copies: 2 + 2
Kd [5]: 0.04 µM
